Like-named read-outs stand apart in the source and are kept apart here.
What was measured:
[1] = target: SARS-CoV-2 spike RBD, WT, C-tag (SARS-CoV-2 (WT), UniProt P0DTC2 319-591); assay: BLI; BLI: PBS pH 7.4, 1 mM MgCl2 ([…]; flow cytometry 25 C ([…]; conditions: protein: recombinant; tags: C-tag; label: with or without biotin; SA-ATTO647N in flow cytometry
[2] = target: T1, SARS-CoV-2 trimeric spike, WT, His-tag (SARS-CoV-2 (WT), UniProt P0DTC2 14-1208); assay: ELONA; abolished by 0.1 mg/mL dextran sulfate; conditions: protein: recombinant, tags: 8xHis (flow cytometry), chain copies: 3, label: with or without biotin, SA-ATTO647N in flow cytometry
[3] = target: SARS-CoV-2 trimeric spike, WT, C-tag (SARS-CoV-2 (WT), UniProt P0DTC2 16-1208); conditions: protein: recombinant; tags: C-tag; chain copies: 3; label: with or without biotin; SA-ATTO647N in flow cytometry
[4] = target: SARS-CoV-2 spike S1, WT, His-tag (SARS-CoV-2 (WT), UniProt P0DTC2 16-685); assay: BLI; conditions: protein: recombinant; tags: His; label: with or without biotin; SA-ATTO647N in flow cytometry
[5] = target: chemokine CCL17, untagged (human, UniProt Q92583 24-94); assay: ELONA; 200 nM aptamer; BLI: PBS pH 7.4, 1 mM MgCl2 (MSA aptamers: 50 mM HEPES pH 7.4, 6 mM KCl, 150 mM NaCl, 2.5 mM CaCl2, 2.5 mM MgCl2), 0.1 mg/mL BSA, 0.02% Tween-20; ELONA 25 C in; conditions: protein: recombinant; tags: none; label: with or without biotin; SA-ATTO647N in flow cytometry
Sequence of chemokine CCL17, untagged (Q92583 24-94): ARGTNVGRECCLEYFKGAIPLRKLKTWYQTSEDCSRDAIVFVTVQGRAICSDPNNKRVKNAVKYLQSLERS

ACE2, His-tag [6] = target: T2, ACE2, His-tag (UniProt Q9BYF1 18-740); assay: as above; conditions: protein: recombinant; tags: His; label: with or without biotin; SA-ATTO647N in flow cytometry
T2 sequence (Q9BYF1 18-740): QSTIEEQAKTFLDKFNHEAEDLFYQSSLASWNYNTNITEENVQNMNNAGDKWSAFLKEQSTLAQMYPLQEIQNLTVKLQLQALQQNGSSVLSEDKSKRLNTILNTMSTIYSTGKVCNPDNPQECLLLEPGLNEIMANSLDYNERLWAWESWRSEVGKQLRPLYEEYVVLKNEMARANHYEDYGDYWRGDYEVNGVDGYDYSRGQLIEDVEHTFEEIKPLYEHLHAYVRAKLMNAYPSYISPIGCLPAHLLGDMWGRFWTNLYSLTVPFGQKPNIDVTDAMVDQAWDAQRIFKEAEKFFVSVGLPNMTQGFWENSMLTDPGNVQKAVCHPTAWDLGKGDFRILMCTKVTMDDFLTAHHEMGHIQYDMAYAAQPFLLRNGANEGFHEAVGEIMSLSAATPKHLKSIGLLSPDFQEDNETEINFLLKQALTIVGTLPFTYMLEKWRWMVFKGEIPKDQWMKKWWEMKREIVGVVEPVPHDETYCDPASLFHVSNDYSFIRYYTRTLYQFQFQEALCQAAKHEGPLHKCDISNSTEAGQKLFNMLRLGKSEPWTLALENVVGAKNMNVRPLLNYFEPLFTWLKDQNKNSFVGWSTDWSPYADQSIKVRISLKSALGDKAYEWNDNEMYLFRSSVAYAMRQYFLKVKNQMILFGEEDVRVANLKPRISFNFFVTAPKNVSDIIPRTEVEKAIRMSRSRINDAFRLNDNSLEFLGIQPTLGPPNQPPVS

[7] = target: SARS-CoV-2 trimeric spike, WT, C-tag (SARS-CoV-2 (WT), UniProt P0DTC2); assay: BLI; BLI: PBS pH 7.4, 1 mM MgCl2 ([…]; flow cytometry 25 C ([…]; conditions: protein: recombinant; tags: C-tag
[8] = target: SARS-CoV-2 spike RBD, WT, His-tag (SARS-CoV-2 (WT), UniProt P0DTC2 319-541); assay: as above
[9] = target: T3, SARS-CoV-2 trimeric spike, WT, His-tag (SARS-CoV-2 (WT), UniProt P0DTC2); assay: ELONA; conditions: protein: recombinant; tags: 8xHis (flow cytometry); His
[10] = target: SARS-CoV-2 spike S1, WT, His-tag (SARS-CoV-2 (WT), UniProt P0DTC2 16-685); assay: BLI; conditions: protein: recombinant; tags: His
[11] = target: T3, SARS-CoV-2 trimeric spike, WT, His-tag; assay: flow cytometry; 37 C; non-binding control; conditions: protein: recombinant, tags: 8xHis (flow cytometry)
[12] = target: T3, SARS-CoV-2 trimeric spike, WT, His-tag; assay: BLI; conditions: protein: recombinant; tags: 8xHis (flow cytometry); His
[13] = target: T3, SARS-CoV-2 trimeric spike, WT, His-tag; assay: flow cytometry; conditions: protein: recombinant, tags: 8xHis (flow cytometry)
[14] = target: SARS-CoV-2 spike RBD, WT, C-tag (SARS-CoV-2 (WT), UniProt P0DTC2 319-591); assay: BLI; BLI: PBS pH 7.4, 1 mM MgCl2 ([…]; flow cytometry 25 C ([…]
[15] = target: T1, SARS-CoV-2 trimeric spike, WT, His-tag; conditions: protein: recombinant, tags: 8xHis (flow cytometry), chain copies: 3, label: with or without biotin, SA-ATTO647N in flow cytometry
[16] = target: SARS-CoV-2 spike RBD, WT, His-tag (SARS-CoV-2 (WT), UniProt P0DTC2 319-541); assay: BLI; BLI: PBS pH 7.4, 1 mM MgCl2 ([…]; flow cytometry 25 C ([…]; conditions: protein: recombinant; tags: His; label: with or without biotin; SA-ATTO647N in flow cytometry
ACE2, His-tag [17] = target: T2, ACE2, His-tag; assay: ELONA; conditions: protein: recombinant; tags: His; label: with or without biotin; SA-ATTO647N in flow cytometry

Binder | binding result [1] | binding result [4] | binding result [7] | binding result [8] | binding result [10] | other results
CTTCCACGGGTTTGGCGTCGGGCCTGGCGGGGGGATAGTGCGGTGGAAG (ssDNA) [MSA5-T4] | no binding | binds | – | – | – | binding result [2]: binds; binding result [3]: no binding; binding result [5]: no binding; binding result (ACE2, His-tag [6]): no binding
CAACCCATGGTAGGTATTGCTTGGTAGGGATAGTGGGCTTG (ssDNA) [SP6.41] | – | – | binds | no binding | no binding | binding result [9]: binds
CCCATGGTAGGTATTGCTTGGTAGCGATAGTGGG (ssDNA) [SP6.34C] | – | – | – | – | – | binding result [11]: no binding
Aptamer-1 (ssDNA) DNA: ATCCAGAGTGACGCAGCATCGAGTGGCTTGTTTGTAATGTAGGGTTCCGGTCGTGGGTTGGACACGGTGGCTTAGT | – | – | no binding | binds | binds | binding result [12]: binds
TCCGGTTAATTTATGCTCTACCCGTCCACCTACCGGA (ssDNA) [MSA1-T3] | – | – | no binding | no binding | – | binding result [12]: binds
RBD-PB6 (XNA, 2'-F-modified RNA) RNA: GGGGCCACCAACGACAUUUGUAAUUCCUGGACCGAUACUUCCGUCAGGACAGAGGUUGAUAUAAAUAGUGCCCAUGGAUCC | – | – | binds | binds | binds | binding result [13]: binds; binding result [14]: binds
CoV2-RBD-1C (ssDNA) DNA: CAGCACCGACCTTGTGCTTTGGGAGTGCTGGTCCAAGGGCGTTAATGGACA | no binding | binds | – | – | – | binding result [15]: binds; binding result [16]: binds
CGCAGCACCCAAGAACAAGGACTGCTTAGGATTGCGATAGGTTCGG (ssDNA) [CoV2-6C3] | no binding | binds | – | – | – | binding result [15]: binds; binding result [16]: binds; binding result [3]: binds
nCoV-S1-A2 (ssDNA) DNA: AGCAGCACAGAGGTCAGATGGCAGCTAAGCAGGCGGCTCACAAAACCATTCGCATGCGGCCCTATGCGTGCTACCGTGAA | – | – | – | no binding | – | –
Aptamer-2 (ssDNA) DNA: ATCCAGAGTGACGCAGCAATTACCGATGGCTTGTTTGTAATGTAGGGTTCCGTCGGATTGGACACGGTGGCTTAGT | – | – | no binding | binds | binds | binding result [12]: binds
CoV2-RBD-4C (ssDNA) DNA: ATCCAGAGTGACGCAGCATTTCATCGGGTCCAAAAGGGGCTGCTCGGGATTGCGGATATGGACACGT | no binding | binds | – | – | – | binding result [15]: binds; binding result [16]: binds; binding result (ACE2, His-tag [17]): binds
